Measured values from the supplement of paper PMC10724198.
± gives the standard deviation of the averaged measurements.

Test system: Saccharomyces cerevisiae
Experiment: protein stability index of tFT-peptide fusion (C-terminal peptide) (PSI (0-1 scale)); higher = more stable (slower turnover)
Conditions: genetic background: wild type; temperature: 30 C
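Also: PSI is a weighted mean of sequencing reads over stability bins, variants kept only with over 10 reads, mCherry proximal and sfGFP distal, peptide attached via GGGS linker.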

Row | Sequence | protein stability index
1 | PSIHCLSATQTW | 0.672 ± 0.068
2 | PSIPPPSPSPPA | 0.717 ± 0.027
3 | PSLHSPPPPPPR | 0.703 ± 0.053
4 | PSLLSFPFVSLP | 0.696 ± 0.05
5 | PSLPPLPRSPPP | 0.714 ± 0.04
6 | PSLPPPPHSAFC | 0.698 ± 0.073
7 | PSLPPPPPPPSP | 0.614 ± 0.082
8 | PSLPPPPPTPPT | 0.688 ± 0.047
9 | PSLPVPPTLCPI | 0.675 ± 0.062
10 | PSLSPPVHALLF | 0.722 ± 0.013
11 | PSLSVPERSPSL | 0.7 ± 0.041
12 | PSPFPPPSHPSP | 0.695 ± 0.0041
13 | PSPHAITSHFRP | 0.723 ± 0.04
14 | PSPHRELNESHE | 0.674 ± 0.045
15 | PSPHSPPSFLPL | 0.729 ± 0.024
16 | PSPLRLPPPSVP | 0.712 ± 0.013
17 | PSPMVPHVPMST | 0.74579 ± 0.00057
18 | PSPPLLTPLPPC | 0.675 ± 0.022
19 | PSPPPGPPPLPP | 0.613 ± 0.011
20 | PSPPPHPGGTRR | 0.652 ± 0.057
21 | PSPPPHPIHPMA | 0.754 ± 0.18
22 | PSPPPHSAPPLP | 0.732 ± 0.025
23 | PSPPPLLPRPHL | 0.714 ± 0.1
24 | PSPPPPAPPPPP | 0.666 ± 0.013
25 | PSPPPPPLPPAG | 0.663 ± 0.097
26 | PSPPPPSALLSP | 0.727 ± 0.066

Row | Sequence | protein stability index
27 | PSPPPPSLPPPP | 0.67 ± 0.15
28 | PSPPPRPPLSPP | 0.715 ± 0.052
29 | PSPPPVRPRHHH | 0.597 ± 0.069
30 | PSPPSLPSCYAT | 0.717 ± 0.029
31 | PSPPTPSPPPPP | 0.712 ± 0.062
32 | PSPRPAPPPPPP | 0.707 ± 0.054
33 | PSPSAFLPCRLD | 0.791 ± 0.094
34 | PSPSPPRSPALS | 0.713 ± 0.056
35 | PSPVLLLPPPSL | 0.745 ± 0.059
36 | PSPWPPPPSDPP | 0.552 ± 0.12
37 | PSQRRTPPGLFK | 0.656 ± 0.059
38 | PSRRILFSAALL | 0.764 ± 0.28
39 | PSRYHPLPPPTP | 0.711 ± 0.084
40 | PSSDVLLFALSF | 0.6486 ± 0.0049
41 | PSSPLFLPPPPP | 0.696 ± 0.023
42 | PSSPPPPPLPPC | 0.649 ± 0.058
43 | PSSPSTRPRFPL | 0.68 ± 0.083
44 | PSSRPPMSPIDT | 0.694 ± 0.018
45 | PSSSSPPPTFSL | 0.625 ± 0.066
46 | PSSSSPPSLTPA | 0.672 ± 0.097
47 | PSTLPSHRVPLK | 0.68 ± 0.041
48 | PSTPRPPRPPPL | 0.695 ± 0.027
49 | PSTRVPATTHTL | 0.6983 ± 0.00091
50 | PSVPPSPPAPPT | 0.687 ± 0.032
51 | PSVPSPPPPSPP | 0.683 ± 0.024
52 | PSWPRRSSPLAI | 0.73 ± 0.013

Row | Sequence | protein stability index
53 | PSWVFRCAPSPF | 0.505 ± 0.084
54 | PSYPTAPHHSAA | 0.704 ± 0.043
55 | PTARGACRAPRS | 0.667 ± 0.037
56 | PTGSGLTLNRVL | 0.7187 ± 0.0062
57 | PTHPSRLRLFSA | 0.612 ± 0.024
58 | PTLAFIPIPTLF | 0.6051 ± 0.004
59 | PTLCLPESSGRL | 0.705 ± 0.028
60 | PTLWRSSVRHVW | 0.714 ± 0.066
61 | PTPCCFPHPPPT | 0.709 ± 0.02
62 | PTPFVPSPPCRA | 0.664 ± 0.041
63 | PTPGSSPLPATL | 0.687 ± 0.0075
64 | PTPPHPSHPTAP | 0.665 ± 0.023
65 | PTPPPLTPPPCF | 0.678 ± 0.014
66 | PTPSPPLPPITP | 0.773 ± 0.024
67 | PTPTGPGSTSPP | 0.662 ± 0.046
68 | PTQSPSTIPPSP | 0.763 ± 0.11
69 | PTRPPPTSHTPY | 0.685 ± 0.02
70 | PTRPSHTALPSA | 0.664 ± 0.023
71 | PTRRQEVPPEPT | 0.636 ± 0.058
72 | PTSPTTSPDHKH | 0.684 ± 0.15
73 | PTTAPPPRSAGA | 0.764 ± 0.051
74 | PTTFLSPPSPPS | 0.71 ± 0.011
75 | PTTPPPSVPPLY | 0.715 ± 0.042
76 | PTVPLSSVVRDA | 0.746 ± 0.051
77 | PVAGMSNTPLYG | 0.685 ± 0.11
78 | PVAPPQLSPPSS | 0.6704 ± 0.0048

Row | Sequence | protein stability index
79 | PVCASVSLTSSP | 0.697 ± 0.024
80 | PVGEGAGELGGG | 0.642 ± 0.034
81 | PVGGAGCVRGGV | 0.749 ± 0.19
82 | PVILPPLAPFLS | 0.629 ± 0.019
83 | PVITPPSSTPPI | 0.6815 ± 0.0021
84 | PVLANPQGHPPN | 0.719 ± 0.027
85 | PVLCLRMQVLSK | 0.532 ± 0.032
86 | PVLPPRSFPPSS | 0.697 ± 0.014
87 | PVLSPPRPFNSL | 0.677 ± 0.018
88 | PVPLPSPFPLPL | 0.664 ± 0.0093
89 | PVPPPPPSLHPP | 0.636 ± 0.023
90 | PVPPRPHGFPHL | 0.678 ± 0.023
91 | PVRFVDGFLSPI | 0.713 ± 0.03
92 | PVSPAHLRRSLL | 0.775 ± 0.031
93 | PVSPPRLPRPPP | 0.615 ± 0.017
94 | PVSSFHICGPIC | 0.71 ± 0.0098
95 | PVSVALASGSLF | 0.744 ± 0.1
96 | PVTALIASLILR | 0.611 ± 0.031
97 | PVTPHESVVPSL | 0.686 ± 0.02
98 | PVVSRPSNFRWV | 0.663 ± 0.02
99 | PVWDGTAKLSVI | 0.65 ± 0.026
100 | PVYSIARLVPGV | 0.693 ± 0.029
101 | PWSFSPLPFVLL | 0.673 ± 0.037
